A short description of data set [1]: Isothermal titration calorimetry (ITC) of CfAvr4 variants with chitin hexasaccharide. In kind it is binding. Particulars: ITC; for effect of the mutation on binding to (GlcNAc)6: compared with WT-CfAvr4; for increase in the Kd relative to WT-CfAvr4: (GlcNAc)6. The method, then:
A stock solution of the monomer of N-acetylglucosamine was prepared by dissolving the dry powder in a buffer containing 10 mM Bis-Tris, pH 6.5, 100 mM NaCl to a concentration of 0.100 g/L using analytic techniques. Standard solution of 0, 0.010, 0.025, 0.050, 0.075 g/L were prepared by serial dilutions. Using glass test tubes and pipets, 100 μL of each standard was mixed with 300μL of concentrated sulfuric acid and vortexed for 10 sec to mix. Solutions were incubated at RT for 10 min and then placed on ice to stop the reaction. […] Analytically prepared solution of the di- and tri-saccharide scaled linearly to the calibration curve. To determine the concentration of the chitin hexasaccharide solutions used in ITC, the solutions were diluted into the dynamic range of the calibration curve (S12 Fig) and subjected to the above procedure.
All ITC experiments were performed on a TA Instruments low volume NanoITC with a 186uL reaction cell and a reference cell filled with degassed Milli-Q grade water. Reactions were run in a buffer containing 10mM Bis-Tris, pH 6.5, 100 mM NaCl. The reservoir solution was filled with protein solution and continuously stirred while Chitin hexasaccharide solutions titrated in 2.5μL aliquots for 19 injections, with an initial 1μL injection, for a total injection volume of 48.5μL. The carbohydrate solutions were made by dissolving the dry powder in buffer to a concentration of 20mM (confirmed using methods described above) and then diluted to the working concentration using the final buffer exchange flow through to match the buffers as closely as possible. The integrated heats, after correction for the heat of dilution were analyzed using the NanoAnalyze software from […]. An individual binding site model was used to fit the binding isotherm. All experiments were replicated a minimum of three times.

Data set [2] relates to germlings of Trichoderma viride. Nature of the data set: In vitro protection assay of T. viride germlings against chitinases. In kind it is cell-based. The settings on record: 5 μM protein with chitinases and β-1,3-glucanases; for protection of fungal hyphae against chitinases, fungal growth: 6–8 h. The procedure:
The ability of the WT-CfAvr4 and of ChBD mutants to protect against chitinases was evaluated in in vitro protection assays conducted as described before. Briefly, spores of T. viride (3∙10^3) were pre-germinated overnight at room temperature in 100 μl of half-strength PDB medium in 96 well plates. The following day, 5 μM of WT-CfAvr4 or ChBD mutants were mixed with 7.5 units of Zymolyase (Zymo Research cat. no. E1004) and 0.2 units of bacterial chitinases (Sigma-Aldrich cat. no. C6137) and the mixture was added to the microtitre plate wells containing the pre-germinated spores in a final volume of 150 μl. Plates were incubated at 25°C for 6–8 h before evaluating under the microscope fungal growth and the ability of the proteins to provide protection against chitinases. Zymolase has β-1,3 glucanase and β-1,3-glucan laminaripentaohydrolase activity and is added to the mixture in order to remove the surface glucans from the fungal cell wall and thus expose the underlying chitin layer.

The next data set concerns Cf-4 immune receptor. Nature of the data set: Pure protein infiltrations into tomato leaves of cv Purdue 135 (+ Cf-4), hypersensitive response. Particulars: 5 dpi. It is filed as in vivo. The source says:
Tomato seeds were obtained from the Tomato Genetic Resource Center (TGRC) at UC Davis. WT-CfAvr4 and mutants thereof with single point mutations at selected amino acids were produced and purified from E. coli Rosetta-gami B cells as description above. […]

The subject of the next data set is Cf-4. Nature of the data set: Agrobacterium tumefaciens transient transformation assay (ATTA): co-expression with Cf-4 in Nicotiana benthamiana leaves. It is filed as in vivo. The settings on record: N. benthamiana, three cell density ratios 0.5:1, 1:1, 2:1. The method, then:
The Agrobacterium tumefaciens transient transformation assay (ATTA) was used for the transient co-expression into leaves of Nicotiana benthamiana of Cf-4 with the WT-CfAvr4 and the mutants thereof tested in this study. Briefly, N. benthamiana plants were grown in a growth chamber with 16 h of artificial light and 70% humidity, at 25°C for 4 weeks. The true mature form of the WT-CfAvr4 (i.e. between Lys30-Gln115) and of the mutants thereof were singly cloned into the binary expression vector pICH47742 downstream of the PR1A signal sequence of Nicotiana tabacum for targeted secretion into the apoplast, and under the control of CaMV 35S promoter and NOS terminator. The tomato Cf-4 was cloned into pMOG800 as descripted before. Binary vector plasmids were transformed into A. tumefaciens strain GV3101 by electroporation. For the ATTA assay, agrobacteria transformed with pMOG800:Cf-4 was grown in 10mL LB-mannitol medium (LB medium with 10 g/L mannitol) amended with 50 μg/mL kanamycin and 25 μg/mL rifampicin, whereas agrobacteria transformed with pICH47742:WT-CfAvr4 or pICH4774:CfAvr4-mutants were grown in LB-mannitol amended with 100 μg/mL carbenicillin and 25 μg/mL rifampicin. All cultures were incubated at 28°C for 2 days, after which period they were pelleted at 2800g for 15 min, re-suspended in MMAi medium (5 g/L Murashige and Skoog basal salts, 20 g/L sucrose, 10 mM MES, and […]) at an optical cell density (A600) of 2.0, and further incubated for 2–4 h at room temperature. Agroinfiltrations were performed by mixing agrobacteria containing pMOG800:Cf-4 with agrobacteria containing pICH47742_WT-CfAvr4 or pICH47742:CfAvr4-mutants at three different ratios of optical cell densities, i.e. A6000.5:A6001.0, A6000.5:A6000.5, and A6000.5:A6000.25 of. The mixture of agrobacteria was infiltrated into the leaves of N. benthamiana plants using a 1 mL syringe and the induction of an HR in the infiltrated leaf sectors was evaluated at 5 days post-infiltrations. Control infiltrations were made using only the pMOG800:Cf-4 transformed agrobacteria and the agrobacteria containing pICH47742:CfAvr4 or the mutants thereof without mixing the two cultures, at cell densities of A6000.25, A6000.5, and A6001.0.

Another data set deals with subtilisin. Nature of the data set: Subtilisin treatment (resistance against proteolytic degradation). Set-up: key to Stability (Subtilisin assay): S: stable; PU: partially unstable. Particulars: for Stability (Subtilisin assay): 500 ng/μL subtilisin, 30 min, room temperature; for susceptibility to proteolytic degradation by subtilisin: 500 ng/μl subtilisin, band of mature CfAvr4 on SDS-PAGE. It is filed as in vitro ADME. The method, then:
The WT-CfAvr4 and selected mutants thereof were exposed to the non-specific protease subtilisin in order to determine their resistance against proteolytic degradation. Treatments with subtilisin were made as previously described with minor modifications. Briefly, 40 μM of the E. coli-produced CfAvr4 and the selected CfAvr4 mutants were mixed with 10 mM of calcium chloride and 500 ng/μL of subtilisin (Sigma-Aldrich) in a total volume of 15 μL. Samples were incubated for 30 min at room temperature, after which period they were denatured by mixing with 10 mM PMSF and SDS-PAGE loading buffer, and heating at 98°C for 10 min. Digestion products were visualized on an SDS-PAGE after staining with Coomassie blue.

“Also recorded” adds a separate entry of the source.

B1: D102A (protein)
chain: KAPKTQPYNPCKPQEVIDTKCMGPKDCLYPNPDSCTTYIQCVPLDEVGNAKPVVKPCPKGLQWNDNVGKKWCAYPNLSTCPVKTPQ
modifications: left off: 6x His (two), N-terminal, state not stated
For the molecule B1, the “effect of the mutation on binding to (GlcNAc)6” value in data set [1] is listed as “abolished all detectable binding”. Moreover, in data set [2], the “protection of fungal hyphae against chitinases, fungal growth” value (“protection of fungal hyphae” below) is “essentially failed to protect the fungal hyphae against chitinases; also recorded: fail to protect the fungal hyphae”. Besides, the “Cf-4-mediated HR after protein infiltration” value (“Cf-4-mediated HR” below) in the data set on Cf-4 immune receptor (5 μg/ml) was “weak HR response”; with Cf-4 immune receptor (10 μg/ml), “elicited an HR”; in the data set with Cf-4 immune receptor (both 5 μg/ml and 10 μg/ml), “only partially trigger an HR”. Further, in the data set with Cf-4, the “HR on transient co-expression with Cf-4” value is “strong and similar in intensity HR”. Moreover, in the data set with subtilisin, the “Stability (Subtilisin assay)” value was “PU”. The “susceptibility to proteolytic degradation by subtilisin” value (from here on “susceptibility”) in the data set on subtilisin was “vulnerable to proteolytic degradation; also recorded: decreased intensity of this band”.

B2: Q69N (protein)
chain: KAPKTQPYNPCKPQEVIDTKCMGPKDCLYPNPDSCTTYINCVPLDEVGNAKPVVKPCPKGLQWNDNVGKKWCDYPNLSTCPVKTPQ
modifications: left off: 6x His (two), N-terminal, state not stated
As for B2, in data set [1], the “increase in the Kd relative to WT-CfAvr4” value is on record as ~ 20 fold. Further, in data set [2], the “morphology of hyphae after chitinase treatment” value was “signs of osmotic injuries such as swollen segments and coagulated cytoplasm; also recorded: signs of osmotic injuries, such as swollen segments and coagulated cytoplasm”; the “protection of fungal hyphae” value was “enable fungal growth to levels comparable to those of the WT-CfAvr4”. Also, the “Cf-4-mediated HR” value in the data set on Cf-4 immune receptor (5 μg/ml) is recorded as “weak HR response”. For the same molecule, the “Cf-4-mediated HR” value with Cf-4 immune receptor (10 μg/ml) was “elicited an HR”. Also, the “Cf-4-mediated HR” value in the data set on Cf-4 immune receptor (both 5 μg/ml and 10 μg/ml) was “only partially trigger an HR”. The “HR on transient co-expression with Cf-4” value with Cf-4 was “strong and similar in intensity HR”. Moreover, in the data set with subtilisin, the “Stability (Subtilisin assay)” value was “PU” and the “susceptibility” value is on record as “vulnerable to proteolytic degradation; also recorded: decreased intensity of this band”.

B3: K84A (protein)
chain: KAPKTQPYNPCKPQEVIDTKCMGPKDCLYPNPDSCTTYIQCVPLDEVGNAKPVVAPCPKGLQWNDNVGKKWCDYPNLSTCPVKTPQ
modifications: left off: 6x His (two), N-terminal, state not stated
Turning to B3, in data set [1], the “increase in the Kd relative to WT-CfAvr4” value is ~ 20 fold. Further, in data set [2], the “morphology of hyphae after chitinase treatment” value is “signs of osmotic injuries such as swollen segments and coagulated cytoplasm; also recorded: signs of osmotic injuries, such as swollen segments and coagulated cytoplasm”; the “protection of fungal hyphae” value is listed as “enable fungal growth to levels comparable to those of the WT-CfAvr4”. The “Cf-4-mediated HR” value in the data set with Cf-4 immune receptor (both 5 μg/ml and 10 μg/ml) is “strong and equal in intensity HR; also recorded: full HR; also recorded: strong and equally in intensity necrosis”. Besides, the “HR on transient co-expression with Cf-4” value in the data set on Cf-4 is “full HR; also recorded: strong and similar in intensity HR”. Also, in the data set with subtilisin, the “Stability (Subtilisin assay)” value is “S” and the “susceptibility” value is reported as “as resilient to proteolysis as the WT-CfAvr4”.

B4: W100A (protein)
chain: KAPKTQPYNPCKPQEVIDTKCMGPKDCLYPNPDSCTTYIQCVPLDEVGNAKPVVKPCPKGLQWNDNVGKKACDYPNLSTCPVKTPQ
modifications: left off: 6x His (two), N-terminal, state not stated
B4: the “effect of the mutation on binding to (GlcNAc)6” value in data set [1] is “abolished all detectable binding”. Further, in data set [2], the “protection of fungal hyphae” value was “essentially failed to protect the fungal hyphae against chitinases; also recorded: fail to protect the fungal hyphae”. Besides, in the data set with Cf-4 immune receptor (both 5 μg/ml and 10 μg/ml), the “Cf-4-mediated HR” value was “strong and equal in intensity HR; also recorded: full HR; also recorded: strong and equally in intensity necrosis”. For the same molecule, the “HR on transient co-expression with Cf-4” value with Cf-4 is “full HR; also recorded: strong and similar in intensity HR”. Besides, in the data set with subtilisin, the “Stability (Subtilisin assay)” value is “S” and the “susceptibility” value is recorded as “as resilient to proteolysis as the WT-CfAvr4”.

The values are drawn from paper PMC6128652, “Structure of the Cladosporium fulvum Avr4 effector in complex with (GlcNAc)6 reveals the ligand-binding mechanism and uncouples its intrinsic function from recognition by the Cf-4 resistance protein” (PLoS Pathogens, 2018).
